{"source": "patent US20200248174", "proteins": {"B1": {"name": "human AID deaminase added with SH3 ligand sequence (protein)", "chain": "MDSLLMNRRKFLYQFKNVRWAKGRRETYLCYVVKRRDSATSFSLDFGYLRNKNGCHVELLFLRYISDWDLDPGRCYRVTWFTSWSPCYDCARHVADFLRGNPYLSLRIFTARLYFCEDRKAEPEGLRRLHRAGVQIAIMTFKDYFYCWNTFVENHERTFKAWEGLHENSVRLSRQLRRILLPLYEVDDLRDAFRTLGLLDPPPALPPKRRR"}}, "key": {"[1]": {"biological_target": "dCas9 (SpCas9 D10A, H840A) ligated to SH3 domain via 2xGS linker"}, "[2]": {"biological_target": "dCas9 (SpCas9 D10A, H840A) with a plurality of binding domains (SH3 domains)"}}, "data": [{"protein": "B1", "values": [{"measurement": "introduction of mutation into the targeted site of the CAN1 gene in budding yeast", "setting": "[1]", "result": "even when dCas9 and deaminase were linked via the binding domain, mutation was efficiently introduced into the targeted site of the CAN1 gene"}, {"measurement": "mutation introduction efficiency at the CAN1 gene in budding yeast", "setting": "[2]", "result": "The mutation introduction efficiency was remarkably improved by introducing a plurality of binding domains into dCas9"}]}]}
